B1: PG2982: Class II EPSPS enzyme from Pseudomonas sp. strain PG2982 (SEQ ID NO:7) (protein, listed as Pseudomonas sp.)
chain: MSHSASPKPATARRSEALTGEIRIPGDKSISHRSFMFGGLASGETRITGLLEGEDVINTGRAMQAMGAKIRKEGDVWIINGVGNGCLLQPEAALDFGNAGTGARLTMGLVGTYDMKTSFIGDASLSKRPMGRVLNPLREMGVQVEAADGDRMPLTLIGPKTANPITYRVPMASAQVKSAVLLAGLNTPGVTTVIEPVMTRDHTEKMLQGFGADLTVETDKDGVRHIRITGQGKLVGQTIDVPGDPSSTAFPLVAALLVEGSDVTIRNVLMNPTRTGLILTLQEMGADIEVLNARLAGGEDVADLRVRASKLKGVVVPPERAPSMIDEYPVLAIAASFAEGETVMDGLDELRVKESDRLAAVARGLEANGVDCTEGEMSLTVRGRPDGKGLGGGTVATHLDHRIAMSFLVMGLAAEKPVTVDDSNMIATSFPEFMDMMPGLGAKIELSIL
B2: synthetic CP4 gene: EPSPS enzyme expressed in E. coli from the synthetic CP4 gene (SEQ ID NO:9) (protein, UniProt Q9R4E4 1-455, looked up)
3-phosphoshikimate …: MSHGASSRPATARKSSGLSGTVRIPGDKSISHRSFMFGGLASGETRITGLLEGEDVINTGKAMQAMGARIRKEGDTWIIDGVGNGGLLAPEAPLDFGNAATGCRLTMGLVGVYDFDSTFIGDASLTKRPMGRVLNPLREMGVQVKSEDGDRLPVTLRGPKTPTPITYRVPMASAQVKSAVLLAGLNTPGITTVIEPIMTRDHTEKMLQGFGANLTVETDADGVRTIRLEGRGKLTGQVIDVPGDPSSTAFPLVAALLVPGSDVTILNVLMNPTRTGLILTLQEMGADIEVINPRLAGGEDVADLRVRSSTLKGVTVPEDRAPSMIDEYPILAVAAAFAEGATVMNGLEELRVKESDRLSAVANGLKLNGVDCDEGETSLVVRGRPDGKGLGNASGAAVATHLDHRIAMSFLVMGLVSENPVTVDDATMIATSFPEFMDLMAGLGAKIELSDTKAA
B3: B. subtilis 1A2: Class II EPSPS from Bacillus subtilis 1A2 (SEQ ID NO:42) (protein, listed as Bacillus subtilis)
chain: MKRDKVQTLHGEIHIPGDKSISHRSVMFGALAAGTTTVKNFLPGADCLSTIDCFRKMGVHIEQSSSDVVIHGKGIDALKEPESLLDVGNSGTTIRLMLGILAGRPFYSAVAGDESIAKRPMKRVTEPLKKMGAKIDGRAGGEFTPLSVSGASLKGIDYVSPVASAQIKSAVLLAGLQAEGTTTVTEPHKSRDHTERMLSAFGVKLSEDQTSVSIAGGQKLTAADIFVPGDISSAAFFLAAGAMVPNSRIVLKNVGLNPTRTGIIDVLQNMGAKLEIKPSADSGAEPYGDLIIETSSLKAVEIGGDIIPRLIDEIPIIALLATQAEGTTVIKDAAELKVKETNRIDTVVSELRKLGAEIEPTADGMKVYGKQTLKGGAAVSSHGDHRIGMMLGIASCITEEPIEIEHTDAIHVSYPTFFEHLNKLSKKS
B4: pMON21133: B. subtilis EPSPS (aroE) subcloned from ECE13 into pUC118, expressed in E. coli GB100 (protein, UniProt P54374 1-280, looked up)
Shikimate dehydrogenase …: MKKLYGVIGNPIGHSMSPDIHNASLKDLGLDGHYHAFKVEENDLEDAVKGIRALGVQGINVTVPHKVSIMDYLDHIDESAKVLGAVNTVRREGDKLVGYNTDGEGFVKSLMKVLDKPISELSFLMIGAGGAARAIFTTIVRNTPKKFDICNRTLEKAKRLTEATPSFHNKEVLSIKEAEERLEQYDVIIHTTSVGMYPNVDDVPLSLQRAASSAVVCDIVYNPIQTALLKEASQKGLKTLDGVGMFVEQAALSFQLWTGQEPNIEKMRSIVIGKLGGTEC
B5: pMON21132: B. subtilis EPSPS from the PCR-derived aroE clone, expressed in E. coli GB100 (protein, UniProt P54374 1-280, looked up)
Shikimate dehydrogenase …: B4 Shikimate dehydrogenase …
B6: Petunia: native Petunia EPSPS, a Class I EPSPS (protein)
chain: KPSEIVLQPIKEISGTVKLPGSKSLSNRILLLAALSEGTTVVDNLLSSDDIHYMLGALKTLGLHVEEDSANQRAVVEGCGGLFPVGKESKEEIQLFLGNAGTAMRPLTAAVTVAGGNSRYVLDGVPRMRERPISDLVDGLKQLGAEVDCFLGTKCPPVRIVSKGGLPGGKVKLSGSISSQYLTALLMAAPLALGDVEIEIIDKLISVPYVEMTLKLMERFGISVEHSSSWDRFFVRGGQKYKSPGKAFVEGDASSASYFLAGAAVTGGTITVEGCGTNSLQGDVKFAEVLEKMGAEVTWTENSVTVKGPPRSSSGRKHLRAIDVNMNKMPDVAMTLAVVALYADGPTAIRDVASWRVKETERMIAICTELRKLGATVEEGPDYCIITPPEKLNVTDIDTYDDHRMAMAFSLAACADVPVTINDPGCTRKTFPNYFDVLQQYSKH
modifications: Petunia x hybrida

How the values were obtained:
EPSPS enzymes = test: Kinetic characterization of EPSPS enzymes (Km PEP, Ki glyphosate); format: biochemical; conditions: for Ki/Km: Ki glyphosate / Km PEP; for Km: Km of the EPSPS enzyme for phosphoenolpyruvate, PEP ranges tested in table footnotes
Procedure: The EPSPS enzymes from these microorganisms were then subjected to further study and analysis.
When the change introduced into the Petunia EPSPS (GA101) was introduced into a number of other EPSPS enzymes, similar changes in kinetics were observed, an elevation of the Ki for glyphosate and of the Km for PEP.
All protein purification procedures were carried out at 3–5° C. EPSPS enzyme assays were performed using either the phosphate release or radioactive HPLC method, as previously described in Padgette et al., 1987, using 1 mM phosphoenol pyruvate (PEP, Boehringer) and 2 mM shikimate-3-phosphate (S3P) substrate concentrations. For radioactive HPLC assays, ^14C-PEP (Amersham) was utilized. S3P was synthesized as previously described in Wibbenmeyer et al. 1988. N-terminal amino acid sequencing was performed by loading samples onto a Polybrene precycled filter in aliquots while drying. Automated Edman degradation chemistry was used to determine the N-terminal protein sequence, using an Applied Biosystems Model 470A gas phase sequencer (Hunkapiller et al., 1983) with an Applied Biosystems 120A PTH analyzer.

CP4 EPSPS = biological target: T1, CP4 EPSPS (Agrobacterium sp., UniProt Q9R4E4, S2A); test: EPSPS activity from native and synthetic CP4 EPSPS genes expressed in E. coli; format: biochemical, Agrobacterium sp. strain CP4
T1 construct: made in house; host or cells: E. coli, PRecA-gene10L vector
Source text: A synthetic CP4 gene was designed to change as completely as possible those inimical sequences discussed above. In summary, the gene sequence was redesigned to eliminate as much as possible the following sequences or sequence features (while avoiding the introduction of unnecessary restriction sites): stretches of G's and C's of 5 or greater; and A+T rich regions (predominantly) that could function as polyadenylation sites or potential RNA destabilization region The sequence of this gene is shown in FIG. 8 (SEQ ID NO:9). This coding sequence was expressed in E. coli from the RecA promoter and assayed for EPSPS activity and compared with that from the native CP4 EPSPS gene. […] The N-terminus of the coding sequence was mutagenized to place an SphI site at the ATG to permit the construction of the CTP2-CP4 synthetic fusion for chloroplast import. The following primer was used to accomplish this mutagenesis:
The EPSPS gene was isolated originally from Agrobacterium sp. strain CP4 and expresses a highly tolerant enzyme. The original gene contains sequences that could be inimical to high expression of the gene in some plants. […] The high G+C % in the CP4 EPSPS gene could also result in the formation of strong hairpin structures that may affect expression or stability of the RNA. A plant preferred version of the gene was synthesized and used for these vectors. This coding sequence was expressed in E. coli from a PRecA-gene10L vector (Olins et al., 1988) and the EPSPS activity was compared with that from the native CP4 EPSPS gene. […] The N-terminus of the coding sequence was then mutagenized to place an SphI site (GCATGC) at the ATG to permit the construction of the CTP2-CP4 synthetic fusion for chloroplast import. This change had no apparent effect on the in vivo activity of CP4 EPSPS in E. coli as judged by complementation of the aroA mutant. A CTP-CP4 EPSPS fusion was constructed between the Arabidopsis thaliana EPSPS CTP (Klee et al., 1987) and the CP4 EPSPS coding sequences. The Arabidopsis CTP was engineered by site-directed mutagenesis to place a SphI restriction site at the CTP processing site. This mutagenesis replaced the Glu-Lys at this location with Cys-Met. The CTP2-CP4 EPSPS fusion was tested for import into chloroplasts isolated from Lactuca sativa using the methods described previously (della-Cioppa et al., 1986: 1987).

B. subtilis EPSPS = biological target: T2, B. subtilis EPSPS (Bacillus subtilis, UniProt P20691); test: EPSPS assay and kinetics of B. subtilis EPSPS in crude bacterial extract; format: biochemical; conditions: for EPSPS specific activity: crude extract
T2 construct: Standard EPSPS assay reactions contained crude bacterial extract; endogenous in cells; host or cells: Bacillus subtilis 1A2 crude extract; some values from E. coli GB100 carrying pMON21133 (subclone) or pMON21132 (PCR clone)
Procedure: Bacillus subtilis 1A2 (prototroph) was obtained from the Bacillus Genetic Stock Center at Ohio State University. Standard EPSPS assay reactions contained crude bacterial extract with, 1 mM phosphoenolpyruvate (PEP), 2 mM shikimate-3-phosphate (S3P), 0.1 mM ammonium molybdate, 5 mM potassium fluoride, and 50 mM HEPES, pH 7.0 at 25° C. One unit (U) of EPSPS activity is defined as one μmol EPSP formed per minute under these conditions. For kinetic determinations, reactions contained crude bacterial, 2 mM S3P, varying concentrations of PEP, and 50 mM HEPES, pH 7.0 at 25° C. […] When the assays were performed in the presence of 1 mM glyphosate, 100% of the EPSPS activity was retained. The appKm(PEP) of the B. subtilis EPSPS was determined by measuring the reaction velocity at varying concentrations of PEP. The results were analyzed graphically by the hyperbolic, Lineweaver-Burk and Eadie-Hofstee plots which yielded appKm(PEP) values of 15.3 μM, 10.8 μM and 12.2 μM, respectively. These three data treatments are in good agreement, and yield an average value for appKm(PEP) of 13 μM. The appKi(glyphosate) was estimated by determining the reaction rates of B. subtilis 1A2 EPSPS in the presence of several concentrations of glyphosate, at a PEP concentration of 2 μM.
The other approach to the isolation of the B. subtilis aroE gene, subcloning from ECE13 into pUC118, was performed as follows: • (i) Cut ECE13 and pUC with XmaI and SphI. • (ii) Isolate 1700 bp aroE fragment and 2600 bp pUC118 vector fragment. • (iii) Ligate fragments and transform into GB100. The subclone was designated pMON21133 and the PCR-derived clone was named pMON21132. Clones from both approaches were first confirmed for complementation of the aroA mutation in E. coli GB100. […] These specific activities reflect the expected types of expression levels of the two vectors. […] The appKm(PEP) and the appKi(glyphosate) of the subcloned B. subtilis EPSPS (pMON21133) were determined as described above. […] Characterization of the EPSPS Gene from Staphylococcus aureus

[1] = system: rabbit anti-EPSPS antibody; test: Western analysis with rabbit anti-EPSPS antibody to the Petunia EPSPS protein; format: binding; conditions: crude extracts 50 μg protein; control Petunia EPSPS 20 ng; Protein A-125I development
Source text: The presence of EPSPS activity in these extracts was confirmed by enzyme assay. This surprising result, indicating a lack of similarity between the EPSPS's from these bacterial isolates and those previously studied, coupled with the combination of a low Km for PEP and a high Ki for glyphosate, illustrates that these new EPSPS enzymes are different from known EPSPS enzymes (now referred to as Class I EPSPS).

[2] = 2 mM S3P, varying PEP, pH 7.0, 25° C.
[3] = 1 mM PEP, 2 mM S3P, pH 7.0, 25° C.

T1 sequence (Q9R4E4 whole entry S2A): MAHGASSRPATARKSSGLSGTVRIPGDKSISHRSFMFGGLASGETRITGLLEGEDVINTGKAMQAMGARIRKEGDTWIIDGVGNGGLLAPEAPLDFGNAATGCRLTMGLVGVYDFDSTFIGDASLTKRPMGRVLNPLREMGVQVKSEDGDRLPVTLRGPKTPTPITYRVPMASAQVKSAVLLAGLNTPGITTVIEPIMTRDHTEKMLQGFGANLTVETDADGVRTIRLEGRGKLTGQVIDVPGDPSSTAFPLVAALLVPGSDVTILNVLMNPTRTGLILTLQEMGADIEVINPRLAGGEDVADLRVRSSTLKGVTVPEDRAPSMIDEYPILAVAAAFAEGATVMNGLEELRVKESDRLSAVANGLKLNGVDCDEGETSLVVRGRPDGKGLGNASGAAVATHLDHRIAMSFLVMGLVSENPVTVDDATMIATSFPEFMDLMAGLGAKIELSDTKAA

Molecule | Ki/Km (EPSPS enzymes) | Km (EPSPS enzymes) | EPSPS specific activity (B. subtilis EPSPS; [3]) | other results
B1 | ~8–40 | 2.1 to 3.1 µM |  | 
B2 |  |  |  | appKm for PEP (CP4 EPSPS; expressed in E. coli from a PRecA-gene10L vector): 12.7 µM; Km (CP4 EPSPS; expressed in E. coli from the RecA promoter, read-out: apparent Km for PEP): 12.7 µM
B3 | 33.8 | 13 µM | 0.003 U/mg | EPSPS activity retained in the presence of 1 mM glyphosate (B. subtilis EPSPS; 1 mM glyphosate, 1 mM PEP, 2 mM S3P): 100%; appKm(PEP), Eadie-Hofstee plot (B. subtilis EPSPS; [2]): 12.2 µM; appKm(PEP), Lineweaver-Burk plot (B. subtilis EPSPS; [2]): 10.8 µM; appKm(PEP), hyperbolic plot (B. subtilis EPSPS; [2]): 15.3 µM; average value for appKm(PEP) (B. subtilis EPSPS; average of three data treatments): 13 µM
B4 |  |  | 0.044 U/mg | 
B5 |  |  | 0.71 U/mg | 
B6 | 0.08 | 5 µM |  | signal in Western analysis with rabbit anti-EPSPS antibody [1]: readily detected

Source: patent US7183110B2, “Antibody immunoreactive with a 5-enolpyruvylshikimate-3-phosphate synthase” (Monsanto Technology LLC, priority 1990, dated 2007)
